Experimental data as given in patent publication US20210292393A1 (published 2021).

How the values were obtained:
[1] = biological target: SARS-CoV-2 full length spike protein, V483A mutant (SARS-CoV-2, UniProt P0DTC2 14-1273)
[2] = biological target: SARS-CoV-2 full length spike protein, D614G mutant (SARS-CoV-2, UniProt P0DTC2 14-1273)
[3] = biological target: SARS-CoV-2 full length spike protein, V367F mutant (SARS-CoV-2, UniProt P0DTC2 14-1273)
[4] = biological target: SARS-CoV-2 full length spike protein, D614G mutant (SARS-CoV-2, UniProt P0DTC2 14-1273); remark: listed apart in the source
[5] = biological target: SARS-CoV-2 full length spike protein, V367F mutant (SARS-CoV-2, UniProt P0DTC2 14-1273); remark: listed apart in the source

B1: antibody 446 (antibody, V domains shown)
VH: QVQLVESGGGVVQPGRSLRLSCAASGFTFSSYAMHWVRQAPGKGLEWVAVISYDGSNKYYADSVKGRFTISRDNSKNTLYLQMNSLRAEDTAVYYCARPNSGSYFGYFQHWGQGTLVTVSS
VL: QSVLTQPPSVSGAPGQRVTISCTGSSSNIGAGYDVHWYQQLPGTAPKLLIYGNSNRPSGVPDRFSGSKSGTSASLAITGLQAEDEADYYCQSYDSSLSGFYVFGTGTKVTVL
B1 was tested, and the “median fluorescence fold over isotype control” value (“median fluorescence fold” below) [1] was 6.16 fold over isotype.

B2: antibody 528 (antibody, V domains shown)
VH: QVQLVQSGAEVKKPGSSVKVSCKASGGTFNSNSISWVRQAPGQGLEWMGRIIPILDITMYARKFQGRVTISADKSTGTAYMDLSSLRSEDTAVYYCATDRDDSSGDYYYGMDVWGQGTTVTVSS
VL: DIQMTQSPSSLSASVGDRVTITCRASLSISNYLNWYQQKPGKAPNLLIYAASTLQSGVPSRFSGSGSGTDFTLTISSLQPEDFATYYCQQTYITRWTFGQGTKVEIK
B2 was tested, and the “median fold over isotype” value [2] was 3.71 fold over isotype and the “median fold over isotype” value [3] was 31.2 fold over isotype.

B3: antibody 552 (antibody, V domains shown)
VH: QVQLVQSGAEVKKPGSSVKVSCKASGGTFSSYGISWVRQAPGQGLEWMGRIIPILGIANYAQKFQGRVTITADKSTSTAYMELSSLRSEDTAVYYCARAVYAAGDDDYYYYYGMDVWGQGTTVTVSS
VL: SYELTQPPSVSVSPGQTARITCSGDALPKQYAYWYQQKPGQAPVVVIYKDSDRPSGIPERFSGSSSGTTVTLTISGVQAEDEADYYCQSADSSGTYQVFGTGTKVSVL
With B3 the “median fold over isotype” value [2] was 23.5 fold over isotype and the “median fold over isotype” value [3] was 13.2 fold over isotype.

B4: antibody 302 (antibody, V domains shown)
VH: QVQLVQSGAEVRKPGASVKVSCKVSGYTLSELSMHWVRQAPGKGLEWMGGFDPEDGERMYAQKFQGRVTMTEDTSTDTAYMELSSLRSEDTAIYYCTTDLSYLWSGKLEPDYWYFALWGRGTLVTVSS
VL: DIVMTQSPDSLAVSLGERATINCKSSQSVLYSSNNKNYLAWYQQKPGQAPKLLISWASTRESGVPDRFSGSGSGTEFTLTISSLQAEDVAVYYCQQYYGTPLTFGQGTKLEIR
B4 was tested, and the “median fluorescence intensity, fold over isotype control” value (“median fluorescence intensity, fold” below) [4] was 45.4 fold over isotype and the “median fluorescence intensity, fold” value [5] was 26.5 fold over isotype.

B5: antibody 529 (antibody, V domains shown)
VH: QVQLVQSGAEVKKPGASVKVSCKASGYTFTSYGISWVRQAPGQGLEWMGWISAYNGNTNYAQKLQGRVTMTTDTSTSTAYMELRSLRSDDTAVYYCARMLIAAAGTSRDYYGMDVWGQGTTVTVSS
VL: EIVLTQSPDFQSVTPKEKVTITCRASQSIGSSLHWYQQKPDQSPKLLIKYASQSFSGVPSRFSGSGSGTDFTLTINSLEAEDAATYYCHQSSSLPHTFGGGTKVEIK
For B5, the “median fold over isotype” value [2] was 0.77 fold over isotype and the “median fold over isotype” value [3] was 0.98 fold over isotype.

B6: antibody 287 (antibody, V domains shown)
VH: QLQLQESGPGLVKPSETLSLTCTVSGGSISSSSYYWGWIRQPPGKGLEWIGSIFYSGSTYYNPSLKSRVTIFVDTSKNQFSLKLSSVTAADTAVYYCARFDYQVVDLTGFDYWGQGTLVTVSS
VL: DIQMTQSPSSLSASVGDRVTITCRASQGIRNDLGWYQQKPGKAPKRLIYAASSLQSGVPSRFSGSGSGTEFTLTIRSLQPEDFATYYCLQYNSYPLTFGGGTKVEIK
With B6 the “median fluorescence intensity, fold” value [4] was 87.4 fold over isotype and the “median fluorescence intensity, fold” value [5] was 60.9 fold over isotype.

B7: antibody 559 (antibody, V domains shown)
VH: QVQLQESGPGLVKLSETLSLTCTVSGYSISSGYYWGWIRQPPGKGLEWIGSIYHSGSTYYNPSLKSRVTISVDTSKNQFSLKLSSVTAADTAVYYCAREETLGSSWYESYIDYWGQGTLVTVSS
VL: SYVLTQPPSVSVAPGKTARITCGGNNIGSKSVHWYQQKPGQAPVLVIYYDSDRPSGIPERFSGSNSGNTATLTISRVEAGDEADYYCQVWDSSSDHPRVFGGGTKLTVL
In the case of B7, the “median fold over isotype” value [2] is reported as 49.5 fold over isotype and the “median fold over isotype” value [3] is reported as 25.4 fold over isotype.

B8: antibody 298 (antibody, V domains shown)
VH: EVQLVESGGGLVQPGGSLRLSCAASGFTVSSNYMSWVRQAPGKGLEWVSVIYSGGSTYYADSVKGRFTISRDNSKNTLYLQMNSLRAEDTAVYYCAREEGEWEKDYYGMDVWGQGTTVTVSS
VL: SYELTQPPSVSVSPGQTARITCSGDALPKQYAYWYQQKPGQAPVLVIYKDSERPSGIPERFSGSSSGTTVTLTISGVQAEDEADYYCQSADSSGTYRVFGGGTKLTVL
For B8, the “median fluorescence intensity, fold” value [4] was 66.8 fold over isotype and the “median fluorescence intensity, fold” value [5] was 35.7 fold over isotype.

B9: antibody 305 (antibody, V domains shown)
VH: QVQLVESGGGVVQPGRSLRLSCAASGFTFSSYAMHWVRQAPGKGLEWVAVISYDGSNKYYADSVKGRFTISRDNSKNTLYLQMNSLRAEDTAVYYCAREQTSYDYVWGTLGAYYYYGMDVWGQGTTVTVSS
VL: SSELTQDPAVSVALGQTVRITCQGDSLRSYYASWYQQKPGQAPVLVIYGKNNRPSGIPDRFSGSSSGNTASLTITGAQAEDEADYYCNSRDSSGNHLVFGGGTKLTVL
B9 was tested, and the “median fluorescence intensity, fold” value [4] was 78.9 fold over isotype and the “median fluorescence intensity, fold” value [5] was 41 fold over isotype.

B10: antibody 422 (antibody, V domains shown)
VH: QVQLVQSGSELKKPGASVKVSCKASGYTFTSYAMNWVRQAPGQGLEWMGWINTNTGNPTYAQGFTGRFVFSLDTSVSTTYLQISSLKAEDTAVYYCARVIGVVTYYYYGMDVWGQGTTVTVSS
VL: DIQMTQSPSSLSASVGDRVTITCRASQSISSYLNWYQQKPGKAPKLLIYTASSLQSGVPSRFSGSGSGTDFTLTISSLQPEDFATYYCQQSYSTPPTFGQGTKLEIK
B10 was tested, and the “median fluorescence fold” value [1] was 15.2 fold over isotype.

B11: antibody 525 (antibody, V domains shown)
VH: QVQLVESGGGVVQPGRSLRLSCAASGFTFSSYAMHWVRQAPGKGLEWVTVISYNGRNKYYADSVKGRFTISRDNSKNTLYLQMNSLRAEDTAVYWCAREGLGAIVVGLDYWGQGTLVIVSS
VL: not shown
With B11 the “median fold over isotype” value [2] was 7.12 fold over isotype and the “median fold over isotype” value [3] was 32.4 fold over isotype.

B12: antibody 423 (antibody, V domains shown)
VH: EVQLVESGGGLIQPGGSLRISCAASGFTVRNNHMSWVRQAPGKGLEWVSVFYRGGTTYYADSVKGRFTISRDDSKNTVDLQMNSLRGEDTAVYYCARGLSVAASGYFDCWGQGTLVTVSS
VL: DIQMTQSPSSVSASVGDTVTITCRANQGISSWLAWYQQVPGKAPELLIYATSTLQSGVPSRFSGSGSGTDFTLTISSLQPEDFATYYCQQANSFPFTFGPGTKVDIK
B12 was tested, and the “median fluorescence fold” value [1] was 15.3 fold over isotype.

B13: antibody 421 (antibody, V domains shown)
VH: QVQLVESGGGVVQPGRSLRLSCAASGFTFSTYAMHWVRQAPGKGLEWVAVISYDGSNKYYADSVKGRFTISRDNSKNTLYLQMNSLRAEDTAVYYCARGYGSGSYYPLYLYWGQGTLVTVSS
VL: not shown
In the case of B13, the “median fluorescence fold” value [1] is reported as 9.33 fold over isotype.

B14: antibody 515 (antibody, V domains shown)
VH: EVQLVESGGGLVKPGGSLRLSCAASGFTFSSYSMNWVRQAPGKGLEWVSSISSSSSYIYYADSVKGRFTISRDNAKNSLYLQMNSLRAEDTAVYYCASIAAAGTLYYYYGMDVWGQGTTVTVSS
VL: not shown
With B14 the “median fold over isotype” value [2] was 21.6 fold over isotype and the “median fold over isotype” value [3] was 9.43 fold over isotype.

B15: antibody 530 (antibody, V domains shown)
VH: EVQLVESGGGLVQPGGSLRLSCAASGFTFSSYWMSWVRQAPGKGLEWVANIKQDGSEKYYVDSVKGRFTISRDNAKNSLYLQMNSLRAEDTAVYYCAREPQLWSEYYFDYWGQGTLVTVSS
VL: DIQMTQSPSSLSASVGDRVTITCRASQGISSWLAWYQQKPEKAPKSLIYAASSLQSGVPSRFSGSGSGTDFTLTISSLQPEDFATYYCQQYNSYPPTFGQGTRLEIK
With B15 the “median fold over isotype” value [2] was 8.68 fold over isotype and the “median fold over isotype” value [3] was 8.39 fold over isotype.

B16: antibody 308 (antibody, V domains shown)
VH: QLQLQESGPGLVKPSETLSLTCSVSGGSISSSSYHWGWIRQPPGKGLEWIGSIYYSGSTYYNPSLKSRVTISVDTSKNQFSLKLRSVTAADTAVYYCAGLRVVITFGGVIPKGGAFDIWGQGTMVTVSS
VL: QSALTQPASVSGSPGQSITISCTGTSSDVGGYNYVSWYQQHPGKAPKLMIYDVSNRPSGVSNRFSGSKSGNTASLTISGLQAEDEADYYCSSYTSSSTVVFGGGTKLTVL
For B16, the “median fluorescence intensity, fold” value [4] was 7.93 fold over isotype and the “median fluorescence intensity, fold” value [5] was 33.4 fold over isotype.

B17: antibody 535 (antibody, V domains shown)
VH: EVQLVESGGGLIQPGGSLRLSCAASGFTVSSNYMSWVRQAPGKGLEWVSVIYSGGSTYYADSVKGRFTISRDNSKNTLYLQMNSLRAEDTAVYYCARDLTEEGDFWSASSYRRYYYYGMDVWGQGTTVTVSS
VL: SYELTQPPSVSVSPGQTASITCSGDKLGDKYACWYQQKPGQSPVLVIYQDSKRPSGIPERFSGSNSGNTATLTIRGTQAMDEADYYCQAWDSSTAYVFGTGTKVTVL
With B17 the “median fold over isotype” value [2] was 93.2 fold over isotype and the “median fold over isotype” value [3] was 64.5 fold over isotype.

B18: antibody 532 (antibody, V domains shown)
VH: EVQLVESGGGLVQPGGSLRLSCAASGIIVSSNYMSWVRQAPGKGLEWVSVIYSGGSTYYADSVKGRFTISRDNSKNTLYLQMNSLRAEDTAVYYCAREGLVGATLAFDYWGQGTLVTVSS
VL: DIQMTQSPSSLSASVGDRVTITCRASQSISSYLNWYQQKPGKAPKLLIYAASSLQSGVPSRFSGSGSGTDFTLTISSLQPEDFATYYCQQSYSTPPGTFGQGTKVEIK
In the case of B18, the “median fold over isotype” value [2] is reported as 74.9 fold over isotype and the “median fold over isotype” value [3] is reported as 45.1 fold over isotype.

B19: antibody 310 (antibody, V domains shown)
VH: EVQLVESGGGLVQPGGSLRLSCAASGFTFSSYWMSWVRQAPGKGLEWVANIKQDGSEKYYVDSVKGRFTISRDNAKNSLYLQMNSLRAEDTAVYYCARVGSSSWYFDYWGQGTLVTVSS
VL: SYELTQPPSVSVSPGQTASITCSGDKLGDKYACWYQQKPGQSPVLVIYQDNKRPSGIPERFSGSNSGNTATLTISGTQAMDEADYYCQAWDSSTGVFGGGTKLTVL
For B19, the “median fluorescence intensity, fold” value [4] was 5.35 fold over isotype and the “median fluorescence intensity, fold” value [5] was 28.1 fold over isotype.

B20: antibody 431 (antibody, V domains shown)
VH: QVQLVESGGGVVQPGRSLRLSCAASGFTFSSYAMHWVRQAPGKGLEWLAVISYDGSNKYYADSVKGRFTISRDNSKNTLYLQMNSLRAEDTAVYYCARSFRGGYYYGMDVWGQGTTVTVSS
VL: DIQLTQSPSFLSASVGDRVTITCRASQGISSYLAWYQQKPGKAPKLLIYAASTLQSGVPSRFSGSGSGTEFTLTISSLQPEDFATYYCQQLNSYPLFTFGPGTKVDIK
B20 was tested, and the “median fluorescence fold” value [1] was 11.7 fold over isotype.

B21: antibody 439 (antibody, V domains shown)
VH: QVQLVESGGGVVQPGRSLRLSCAASGFTFSSYAMHWVRQAPGKGLEWVAVISYDGSNKYYADSVKGRFTISRDNSKNTLYLQMNSLRAEDTAVYYCARPPRGGSYYPFDPWGQGTLVTVSS
VL: not shown
For B21, the “median fluorescence fold” value [1] was 9.01 fold over isotype.

B22: antibody 520 (antibody, V domains shown)
VH: QVQLVESGGGVVQPGRSLRLSCAASGFTFSSYAMHWGRQAPGKGLEWVAVISYDGSNKYYADSVKGRFTISRDNSKNTLYLQMNSLRAEDTAVYYCARDGGSGWLLVGNWFDPWGQGTLVTVSS
VL: QSALTQPASVSGSPGQSITISCTGTSSDVGGYNYVSWYQQHPGKAPKLMIYDVSNRPSGVSNRFSGSKSGNTASLTISGLQAEDEADYYCSSYTSSITLYVFGTGTKVTVL
In the case of B22, the “median fold over isotype” value [2] is reported as 7.6 fold over isotype and the “median fold over isotype” value [3] is reported as 31.2 fold over isotype.
